According to US20260274955A1 (JANUX THERAPEUTICS, published 2026):

Legend:
[1] = biological target: T1, Anti-CD28 Fab (SEQ ID NOs: 202, 203); test: phage binding ELISA, Fab on plate;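 also: clonal phage supernatant ELISA, wells preincubated with CD28 antigen or blocking buffer only, then bound phage detected using HRP-linked anti-M13 antibody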
T1 construct: biotinylated and captured on neutravidin coated plates in the phage ELISA
Description: (§1) After panning, phage infected bacteria were plated out and colonies picked into 96 well blocks. Clonal phage was then amplified and separated from bacterial cells via centrifugation.
(§2) Clonal phage were harvested as crude supernatants and screened via standard ELISAs. […] Prior to the addition of clonal phage, wells were incubated with blocking buffer and CD28 antigen or blocking buffer alone. Without washing or aspirating, clonal phage supernatants were then added to the wells and incubated for a short time. Wells were then washed followed by detection of bound phage using a horse radish conjugated anti-M13 antibody. Clonal phage of interest were then sent for sequence analysis.

[2] = biological target: T2, anti-CD28 Fab (SEQ ID NOs: 202, 203); test: phage binding ELISA on captured biotinylated Fab;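 also: clonal phage supernatants added to wells preincubated with CD28 antigen or blocking buffer only, bound phage detected by ELISA with horseradish-conjugated anti-M13 antibody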
T2 construct: biotinylated and captured on neutravidin coated plates in the phage ELISA
T2 sequence (VH, as listed by the source, chain 1 of 2): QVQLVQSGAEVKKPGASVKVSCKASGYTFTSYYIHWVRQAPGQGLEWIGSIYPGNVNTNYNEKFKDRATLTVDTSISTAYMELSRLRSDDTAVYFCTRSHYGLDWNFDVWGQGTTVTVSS
T2 sequence (VL, as listed by the source, chain 2 of 2): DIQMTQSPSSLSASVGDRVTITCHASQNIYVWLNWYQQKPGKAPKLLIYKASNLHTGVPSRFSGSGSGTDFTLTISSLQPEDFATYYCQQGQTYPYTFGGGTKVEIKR
Description: as §1, §2

T1 sequence (VH, as listed by the source, chain 1 of 2): as the sequence (VH, as listed by the source, chain 1 of 2) above
T1 sequence (VL, as listed by the source, chain 2 of 2): as the sequence (VL, as listed by the source, chain 2 of 2) above

B1: Phage-1091 (peptide)
peptide: TCAAGAAWEWPICF
Anti-CD28 Fab (SEQ ID NOs: 202, 203) signal [1]: 1.54

B2: Phage-1084 (peptide)
peptide: MCTAGATYPWPACL
Anti-CD28 Fab (SEQ ID NOs: 202, 203) signal [1]: 1.56

B3: Phage-1068 (peptide)
peptide: SCAAGATYEWPRCL
Anti-CD28 Fab (SEQ ID NOs: 202, 203) signal [1]: 1.6

B4: Phage-1074 (peptide)
peptide: SCAAGATYEWPICL
Anti-CD28 Fab (SEQ ID NOs: 202, 203) signal [1]: 1.59

B5: Phage-1072 (peptide)
peptide: TCSAGAAYAWPYCL
Anti-CD28 Fab (SEQ ID NOs: 202, 203) signal [1]: 1.59

B6: Phage-1063 (peptide)
peptide: TCAAGAHYEWPMCY
Anti-CD28 Fab (SEQ ID NOs: 202, 203) signal [1]: 1.61

B7: Phage-1092 (peptide)
peptide: TCAAGAMWNWPQCY
Anti-CD28 Fab (SEQ ID NOs: 202, 203) signal [1]: 1.54

B8: Phage-11 (peptide)
peptide: WCWDYKLWVPMTCP
Anti-CD28 Fab (SEQ ID NOs: 202, 203) signal [2]: 2.51

B9: Phage-12 (peptide)
peptide: DCWWMFESYPGRCI
Anti-CD28 Fab (SEQ ID NOs: 202, 203) signal [2]: 1.65

B10: Phage-1095 (peptide)
peptide: TCSAGATYVWPDCF
Anti-CD28 Fab (SEQ ID NOs: 202, 203) signal [1]: 1.52

B11: Phage-888 (peptide)
peptide: LCAAGASWPWPVCL
Anti-CD28 Fab (SEQ ID NOs: 202, 203) signal [2]: 2.16

B12: Phage-1087 (peptide)
peptide: TCSAGATYSWPFCF
Anti-CD28 Fab (SEQ ID NOs: 202, 203) signal [1]: 1.55

B13: Phage-1060 (peptide)
peptide: WCTAGFSYKLSICL
Anti-CD28 Fab (SEQ ID NOs: 202, 203) signal [1]: 1.63

B14: Phage-1077 (peptide)
peptide: WCAAGASYPWPWCL
Anti-CD28 Fab (SEQ ID NOs: 202, 203) signal [1]: 1.58

B15: Phage-1042 (peptide)
peptide: WCAAGATWPWPLCI
Anti-CD28 Fab (SEQ ID NOs: 202, 203) signal [1]: 1.7

B16: Phage-1073 (peptide)
peptide: LCAAGAAYPWPMCL
Anti-CD28 Fab (SEQ ID NOs: 202, 203) signal [1]: 1.59

B17: Phage-6 (peptide)
peptide: GCQYPWAFDAMSCP
Anti-CD28 Fab (SEQ ID NOs: 202, 203) signal [2]: 2.38

B18: Phage-1076 (peptide)
peptide: SCAAGAQYGWPMCL
Anti-CD28 Fab (SEQ ID NOs: 202, 203) signal [1]: 1.59

B19: Phage-1088 (peptide)
peptide: SCKAGAPYYWPGCF
Anti-CD28 Fab (SEQ ID NOs: 202, 203) signal [1]: 1.54

B20: Phage-15 (peptide)
peptide: YWYCSPSIVRCVLV
Anti-CD28 Fab (SEQ ID NOs: 202, 203) signal [2]: 1.51

B21: Phage-3 (peptide)
peptide: FMCLPQNPHPLCFK
Anti-CD28 Fab (SEQ ID NOs: 202, 203) signal [2]: 0.84

B22: Phage-1071 (peptide)
peptide: SCAAGAPYPWPECL
Anti-CD28 Fab (SEQ ID NOs: 202, 203) signal [1]: 1.59

B23: Phage-10 (peptide)
peptide: YCAGHSPINIGKCL
Anti-CD28 Fab (SEQ ID NOs: 202, 203) signal [2]: 1.49

B24: Phage-24 (peptide)
peptide: YCAGHSHEYLAKCE
Anti-CD28 Fab (SEQ ID NOs: 202, 203) signal [2]: 0.86

B25: Phage-23 (peptide)
peptide: YCMGHSHEHIWKCL
Anti-CD28 Fab (SEQ ID NOs: 202, 203) signal [2]: 0.87

B26: Phage-1093 (peptide)
peptide: SCSAGAMYPWPMCL
Anti-CD28 Fab (SEQ ID NOs: 202, 203) signal [1]: 1.53

B27: Phage-19 (peptide)
peptide: DCPWLSGFSRPLLC
Anti-CD28 Fab (SEQ ID NOs: 202, 203) signal [2]: 1.27

B28: Phage-1081 (peptide)
peptide: TCAAGAMWTWPECL
Anti-CD28 Fab (SEQ ID NOs: 202, 203) signal [1]: 1.57

B29: Phage-21 (peptide)
peptide: YCAGHMPQYEVKCL
Anti-CD28 Fab (SEQ ID NOs: 202, 203) signal [2]: 0.22

B30: Phage-1089 (peptide)
peptide: TCSAVFSYTWSNCF
Anti-CD28 Fab (SEQ ID NOs: 202, 203) signal [1]: 1.54

B31: Phage-1070 (peptide)
peptide: TCAAGAYYAWPMCL
Anti-CD28 Fab (SEQ ID NOs: 202, 203) signal [1]: 1.59

B32: Phage-1 (peptide)
peptide: YWSCFQIPFTCFYF
Anti-CD28 Fab (SEQ ID NOs: 202, 203) signal [2]: 1.44

B33: Phage-1066 (peptide)
peptide: TCAAGAHWIWPWCE
Anti-CD28 Fab (SEQ ID NOs: 202, 203) signal [1]: 1.61

B34: Phage-1061 (peptide)
peptide: LCSAGAMYQWPTCL
Anti-CD28 Fab (SEQ ID NOs: 202, 203) signal [1]: 1.63

B35: Phage-1097 (peptide)
peptide: LCSAGAMWQWPTCL
Anti-CD28 Fab (SEQ ID NOs: 202, 203) signal [1]: 1.51

B36: Phage-1058 (peptide)
peptide: LCSAGATYPWPWCM
Anti-CD28 Fab (SEQ ID NOs: 202, 203) signal [1]: 1.64

B37: Phage-1064 (peptide)
peptide: SCSAVFSYAWPTCL
Anti-CD28 Fab (SEQ ID NOs: 202, 203) signal [1]: 1.61

B38: Phage-890 (peptide)
peptide: TCAAGAAWPWPQCL
Anti-CD28 Fab (SEQ ID NOs: 202, 203) signal [2]: 2.23

B39: Phage-8 (peptide)
peptide: WCWDYREWVPMTCP
Anti-CD28 Fab (SEQ ID NOs: 202, 203) signal [2]: 2.3

B40: Phage-14 (peptide)
peptide: WCWYYREWVPMTCP
Anti-CD28 Fab (SEQ ID NOs: 202, 203) signal [2]: 1.85

B41: Phage-1059 (peptide)
peptide: DCWGDAPYPWRVCL
Anti-CD28 Fab (SEQ ID NOs: 202, 203) signal [1]: 1.64

B42: Phage-1099 (peptide)
peptide: TCAAGATWDWPLCF
Anti-CD28 Fab (SEQ ID NOs: 202, 203) signal [1]: 1.51

B43: Phage-22 (peptide)
peptide: YCAGHTEEHYVKCM
Anti-CD28 Fab (SEQ ID NOs: 202, 203) signal [2]: 0.62

B44: Phage-1086 (peptide)
peptide: LCAEGFDYSWPMCL
Anti-CD28 Fab (SEQ ID NOs: 202, 203) signal [1]: 1.55

B45: Phage-1062 (peptide)
peptide: TCSAGANYEWPWCF
Anti-CD28 Fab (SEQ ID NOs: 202, 203) signal [1]: 1.62

B46: Phage-1082 (peptide)
peptide: TCAAGATYPWPECM
Anti-CD28 Fab (SEQ ID NOs: 202, 203) signal [1]: 1.57

B47: Phage-4 (peptide)
peptide: PDCQTILFKPWCVR
Anti-CD28 Fab (SEQ ID NOs: 202, 203) signal [2]: 2.09

B48: Phage-16 (peptide)
peptide: PDCHTILFKPWCVR
Anti-CD28 Fab (SEQ ID NOs: 202, 203) signal [2]: 1

B49: Phage-1078 (peptide)
peptide: TCTAVFPYEWPRCL
Anti-CD28 Fab (SEQ ID NOs: 202, 203) signal [1]: 1.57

B50: Phage-18 (peptide)
peptide: SCAAGASYAWPYCL
Anti-CD28 Fab (SEQ ID NOs: 202, 203) signal [2]: 1.49

B51: Phage-7 (peptide)
peptide: WCWDYKLWVPTQCP
Anti-CD28 Fab (SEQ ID NOs: 202, 203) signal [2]: 2.27

B52: Phage-20 (peptide)
peptide: YCAGMSTIQLWLKC
Anti-CD28 Fab (SEQ ID NOs: 202, 203) signal [2]: 2.16

B53: Phage-1096 (peptide)
peptide: TCEAVFIYSWPFCL
Anti-CD28 Fab (SEQ ID NOs: 202, 203) signal [1]: 1.52

B54: Phage-1098 (peptide)
peptide: LCAEGADYPWPMCL
Anti-CD28 Fab (SEQ ID NOs: 202, 203) signal [1]: 1.51

B55: Phage-1079 (peptide)
peptide: SCAAGATFHWPMCF
Anti-CD28 Fab (SEQ ID NOs: 202, 203) signal [1]: 1.57

B56: Phage-2 (peptide)
peptide: WECLKYTEANACTY
Anti-CD28 Fab (SEQ ID NOs: 202, 203) signal [2]: 1.55

B57: Phage-1080 (peptide)
peptide: TCSAGFSYKWPWCL
Anti-CD28 Fab (SEQ ID NOs: 202, 203) signal [1]: 1.57

B58: Phage-1067 (peptide)
peptide: TCAAGAGWQWPMCF
Anti-CD28 Fab (SEQ ID NOs: 202, 203) signal [1]: 1.6

B59: Phage-1085 (peptide)
peptide: SCSAGAAWPWPWCL
Anti-CD28 Fab (SEQ ID NOs: 202, 203) signal [1]: 1.55

B60: Phage-17 (peptide)
peptide: WICDKSGSIMLCRA
Anti-CD28 Fab (SEQ ID NOs: 202, 203) signal [2]: 0.91

B61: Phage-13 (peptide)
peptide: YCAGHAWQYINKCL
Anti-CD28 Fab (SEQ ID NOs: 202, 203) signal [2]: 0.64

B62: Phage-1041 (peptide)
peptide: RCRAGFSYNWPYCM
Anti-CD28 Fab (SEQ ID NOs: 202, 203) signal [1]: 1.72

B63: Phage-9 (peptide)
peptide: ECHWSMWAVGHACF
Anti-CD28 Fab (SEQ ID NOs: 202, 203) signal [2]: 1.77

B64: Phage-5 (peptide)
peptide: ACDTYFAGMINECF
Anti-CD28 Fab (SEQ ID NOs: 202, 203) signal [2]: 0.92

B65: Phage-1083 (peptide)
peptide: LCAAGFNYPWPLCL
Anti-CD28 Fab (SEQ ID NOs: 202, 203) signal [1]: 1.57

B66: Phage-1094 (peptide)
peptide: TCAAGASWEWPLCF
Anti-CD28 Fab (SEQ ID NOs: 202, 203) signal [1]: 1.52
